Measured values taken from patent US20260209386A1 (MYTHIC THERAPEUTICS, published 2026).
Residue numbers refer to the chain shown, from its start.

T1: Human PTK7 Protein, His Tag, Acro Biosystems (human, UniProt Q13308 31-704)
T1 construct: Bought recombinant protein; also called CCK4; not shown: His tag
T1 sequence: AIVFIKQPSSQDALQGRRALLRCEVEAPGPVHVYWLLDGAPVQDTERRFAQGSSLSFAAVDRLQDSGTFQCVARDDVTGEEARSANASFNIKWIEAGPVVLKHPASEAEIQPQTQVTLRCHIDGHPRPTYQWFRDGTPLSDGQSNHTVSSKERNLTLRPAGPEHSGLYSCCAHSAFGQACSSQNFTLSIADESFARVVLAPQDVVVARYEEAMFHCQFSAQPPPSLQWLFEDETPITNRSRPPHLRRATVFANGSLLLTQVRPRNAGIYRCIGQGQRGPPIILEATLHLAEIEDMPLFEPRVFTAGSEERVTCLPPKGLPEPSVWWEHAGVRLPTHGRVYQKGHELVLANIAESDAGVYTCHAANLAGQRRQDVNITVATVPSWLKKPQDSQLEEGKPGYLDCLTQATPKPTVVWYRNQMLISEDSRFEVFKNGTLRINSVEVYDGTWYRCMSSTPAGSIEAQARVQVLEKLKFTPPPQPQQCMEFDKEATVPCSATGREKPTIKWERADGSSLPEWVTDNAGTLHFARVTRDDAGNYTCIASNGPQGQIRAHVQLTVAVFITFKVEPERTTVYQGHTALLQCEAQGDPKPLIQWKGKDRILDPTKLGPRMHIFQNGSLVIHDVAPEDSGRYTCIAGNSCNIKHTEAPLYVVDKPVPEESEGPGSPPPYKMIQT

T2: Human PTK7 Protein, His Tag, Acro Biosystems (human, UniProt Q13308 31-704)
T2 construct: Bought recombinant protein; also called CCK4; not shown: His tag
T2 sequence: T1 sequence

B1: MYT11138 (antibody, V domains shown)
VH: EVQLVESGGGLVQPGGSLRLSCTASGFSLSTYAMSWVRQAPGKGLEWVGMIYINDNTYYASWAKGRFTISRDTSKNTVYLQMNSLRAEDTAVYFCARDIGISYYIHVSLWGQGTLVTVSS
VL: EIVMTQSPSTLSASVGDRVIITCQASQSIGTRLSWYQQKPGKAPKLLIYGASKLATGVPSRFSGSGSGAEFTLTISSLQPDDFATYYCLGEYSYTTTDGIAFGQGTKLTVL
notes: MYT9412 HC variant
B2: MYT11173 (antibody, V domains shown)
VH: B1 VH with H106G
VL: B1 VL with G99H
notes: MYT9412 LC variant
B3: MYT11164 (antibody, V domains shown)
VH: B1 VH with H106G
VL: B1 VL with G90H
notes: MYT9412 LC variant
B4: MYT11179 (antibody, V domains shown)
VH: B1 VH with H106G
VL: B1 VL with E91A
notes: MYT9412 LC alanine variant
B5: MYT11139 (antibody, V domains shown)
VH: B1 VH with H106G, V107H
VL: B1 VL
notes: MYT9412 HC variant
B6: MYT11168 (antibody, V domains shown)
VH: B1 VH with H106G
VL: B1 VL with Y94H
notes: MYT9412 LC variant
B7: MYT11145 (antibody, V domains shown)
VH: B1 VH with H106G
VL: B1 VL with Q24H
notes: MYT9412 LC variant
B8: MYT11170 (antibody, V domains shown)
VH: B1 VH with H106G
VL: B1 VL with T96H
notes: MYT9412 LC variant
B9: MYT11162 (antibody, V domains shown)
VH: B1 VH with H106G
VL: B1 VL with T56H
notes: MYT9412 LC variant
B10: MYT11156 (antibody, V domains shown)
VH: B1 VH with H106G
VL: B1 VL with G50H
notes: MYT9412 LC variant
B11: MYT11161 (antibody, V domains shown)
VH: B1 VH with H106G
VL: B1 VL with A55H
notes: MYT9412 LC variant
B12: MYT11155 (antibody, V domains shown)
VH: B1 VH with H106G
VL: B1 VL with S34H
notes: MYT9412 LC variant
B13: MYT11169 (antibody, V domains shown)
VH: B1 VH with H106G
VL: B1 VL with T95H
notes: MYT9412 LC variant
B14: MYT11158 (antibody, V domains shown)
VH: B1 VH with H106G
VL: B1 VL with S52H
notes: MYT9412 LC variant
B15: MYT11167 (antibody, V domains shown)
VH: B1 VH with H106G
VL: B1 VL with S93H
notes: MYT9412 LC variant
B16: MYT11148 (antibody, V domains shown)
VH: B1 VH with H106G
VL: B1 VL with Q27H
notes: MYT9412 LC variant
B17: MYT11141 (antibody, V domains shown)
VH: B1 VH with H106G, L109H
VL: B1 VL
notes: MYT9412 HC variant
B18: MYT11159 (antibody, V domains shown)
VH: B1 VH with H106G
VL: B1 VL with K53H
notes: MYT9412 LC variant
B19: MYT11160 (antibody, V domains shown)
VH: B1 VH with H106G
VL: B1 VL with L54H
notes: MYT9412 LC variant
B20: MYT11175 (antibody, V domains shown)
VH: B1 VH with H106G
VL: B1 VL with A101H
notes: MYT9412 LC variant
B21: MYT11149 (antibody, V domains shown)
VH: B1 VH with H106G
VL: B1 VL with S28H
notes: MYT9412 LC variant
B22: MYT11171 (antibody, V domains shown)
VH: B1 VH with H106G
VL: B1 VL with T97H
notes: MYT9412 LC variant
B23: MYT11147 (antibody, V domains shown)
VH: B1 VH with H106G
VL: B1 VL with S26H
notes: MYT9412 LC variant
B24: MYT11140 (antibody, V domains shown)
VH: B1 VH with H106G, S108H
VL: B1 VL
notes: MYT9412 HC variant
B25: MYT11154 (antibody, V domains shown)
VH: B1 VH with H106G
VL: B1 VL with L33H
notes: MYT9412 LC variant
B26: MYT11157 (antibody, V domains shown)
VH: B1 VH with H106G
VL: B1 VL with A51H
notes: MYT9412 LC variant
B27: MYT11256 (antibody, V domains shown)
VH: EVQLVESGGGLVQPGGSLRLSCTASGIHLSRYSMGWVRQAPGKGLEWVGIISYGGSTYYASWAKGRFTISRDTSKNTVYLQMNSLRAEDTAVYFCARVGYPGYSGYGYAFDAFDPWGQGTLVTVSS
VL: EIVMTQSPSTLSASVGDRVIITCQSSKSVYNDNWLSWYQQKPGKAPKLLIYGASTLASGVPSRFSGSGSGAEFTLTISSLQPDDFATYYCAGGYSSSSDNGFGQGTKLTVL
notes: MYT9792 variant, His at VH 28 (H1 03)
B28: MYT11268 (antibody, V domains shown)
VH: B27 VH with H28D, G54H
VL: B27 VL
notes: MYT9792 variant, His at VH 54 (H2 05)
B29: MYT11275 (antibody, V domains shown)
VH: B27 VH with H28D, S61H
VL: B27 VL
notes: MYT9792 variant, His at VH 61 (H2 12)
B30: MYT11273 (antibody, V domains shown)
VH: B27 VH with H28D, Y59H
VL: B27 VL
notes: MYT9792 variant, His at VH 59 (H2 10)
B31: MYT11255 (antibody, V domains shown)
VH: B27 VH with I27H, H28D
VL: B27 VL
notes: MYT9792 variant, His at VH 27 (H1 02)
B32: MYT11266 (antibody, V domains shown)
VH: B27 VH with H28D, S52H
VL: B27 VL
notes: MYT9792 variant, His at VH 52 (H2 03)
B33: MYT11260 (antibody, V domains shown)
VH: B27 VH with H28D, Y32H
VL: B27 VL
notes: MYT9792 variant, His at VH 32 (H1 07)
B34: MYT11270 (antibody, V domains shown)
VH: B27 VH with H28D, S56H
VL: B27 VL
notes: MYT9792 variant, His at VH 56 (H2 07)
B35: MYT11254 (antibody, V domains shown)
VH: B27 VH with G26H, H28D
VL: B27 VL
notes: MYT9792 variant, His at VH 26 (H1 01)
B36: MYT11262 (antibody, V domains shown)
VH: B27 VH with H28D, M34H
VL: B27 VL
notes: MYT9792 variant, His at VH 34 (H1 09)
B37: MYT11274 (antibody, V domains shown)
VH: B27 VH with H28D, A60H
VL: B27 VL
notes: MYT9792 variant, His at VH 60 (H2 11)
B38: MYT11269 (antibody, V domains shown)
VH: B27 VH with H28D, G55H
VL: B27 VL
notes: MYT9792 variant, His at VH 55 (H2 06)
B39: MYT11265 (antibody, V domains shown)
VH: B27 VH with H28D, I51H
VL: B27 VL
notes: MYT9792 variant, His at VH 51 (H2 02)

Each binder was assayed against T1, Human PTK7 Protein, His Tag, Acro … (assay: BLI, anti-human Fc capture, 50 nM PTK7; 2 = substantially similar binding relative to parent).

binding result | Binder
binds | B1
binds | B2
binds | B3
binds | B4
binds | B5
binds | B6
binds | B7
binds | B8
binds | B9
binds | B10
binds | B11
binds | B12
binds | B13
binds | B14
binds | B15
binds | B16
binds | B17
binds | B18
binds | B19
binds | B20
binds | B21
binds | B22
binds | B23
binds | B24
binds | B25
binds | B26

What follows are binders tested against T2, Human PTK7 Protein, His Tag, Acro … in the same assay as above.

binding result | Binder
binds | B27
binds | B28
binds | B29
binds | B30
binds | B31
binds | B32
binds | B33
binds | B34
binds | B35
binds | B36
binds | B37
binds | B38
binds | B39
